# Measured values published in US20090041770A1.
# Molecular target: human FcRn fused to a His-tag and glutathione S transferase (FcRn-His-GST), complex of FcRn heavy chain with beta-2-microglobulin (human) (UniProt P55899)
# Test: AlphaScreen competition
row,Substance,FcRn Binding ratio Variant / WT
1,E269G (antibody),1.34
2,H285D (antibody),2.4
3,V282K (antibody),1.44
4,L235S (antibody),1.51
5,I336E (antibody),8.11
6,P329R (antibody),1.64
7,P238D (antibody),1.03
8,Y300A (antibody),1.04
9,F243W (antibody),4.63
10,V240M (antibody),2.5
11,G236T (antibody),1.56
12,N325F (antibody),1.22
13,S239D/N297D/I332E (antibody),3.09
14,L328F (antibody),2.06
15,P291Q (antibody),1.24
16,N276R (antibody),1.19
17,K288Y (antibody),1.1
18,L235N (antibody),1.32
19,F241W/F243W/V262A/V264A (antibody),1.91
20,P238K (antibody),5.01
21,E283P (antibody),1.33
22,S298H (antibody),3.99
23,P230G (antibody),1.16
24,G237L (antibody),5.91

row,Substance,FcRn Binding ratio Variant / WT
1,S267L/A327S (antibody),1.05
2,L328E/I332E (antibody),1.44
3,N276W (antibody),2
4,F241W/F243W (antibody),1.12
5,E233W (antibody),1.64
6,T225W (antibody),6.89
7,P291I (antibody),1.15
8,Y278D (antibody),1.79
9,P271S (antibody),1.14
10,I332D (antibody),1.75
11,E269P (antibody),1.23
12,K274T (antibody),1.08
13,H285Q (antibody),1.38
14,L234Y (antibody),1.9
15,G237W (antibody),1.2
16,E269F (antibody),1.51
17,I332E (antibody),1.32
18,Y300Q (antibody),1.11
19,A330Y/I332E (antibody),1.53
20,L328I/I332E (antibody),2.21
21,P238W (antibody),1.3
22,L234D (antibody),1.54
23,I332Q (antibody),1.2
24,E318R (antibody),1.17

row,Substance,FcRn Binding ratio Variant / WT
1,V264D (antibody),7.67
2,V264I/I332E (antibody),1.7
3,A330F (antibody),25.3
4,R255Y (antibody),12.9
5,P227G (antibody),1.67
6,S239Q/I332Q (antibody),1.04
7,A327Y (antibody),1.23
8,K274E (antibody),1.05
9,L234R (antibody),1.19
10,G237K (antibody),1.47
11,S239E/V264I/I332E (antibody),2.71
12,E269S (antibody),1.31
13,G236Q (antibody),1.46
14,S298T (antibody),2.13
15,G237D (antibody),1.84
16,I336K (antibody),12.1
17,N276H (antibody),1.19
18,L328D/I332E (antibody),11.8
19,V240T (antibody),2.61
20,S298E (antibody),1.54
21,E233T (antibody),1.19
22,T225K (antibody),5.68
23,E233M (antibody),1.13
24,T335P (antibody),1.45

row,Substance,FcRn Binding ratio Variant / WT
1,A330V (antibody),1.78
2,R301E (antibody),2.92
3,P227K (antibody),1.45
4,Y278M (antibody),1.28
5,D265R (antibody),1.16
6,Y300M (antibody),1.1
7,G236P (antibody),1.41
8,A327L (antibody),1.55
9,L234V (antibody),1.45
10,Q295V (antibody),1.19
11,H285W (antibody),1.33
12,V264S (antibody),5.13
13,T225E (antibody),4.89
14,P329K (antibody),1.27
15,H224Y (antibody),1.68
16,E272D (antibody),1.37
17,T299W (antibody),1.09
18,L328N/I332E (antibody),1.18
19,K274I (antibody),1.08
20,K222Y (antibody),1.31
21,D270S (antibody),1.03
22,P238S (antibody),1.12
23,E272V (antibody),1.77
24,L328A (antibody),1.32

row,Substance,FcRn Binding ratio Variant / WT
1,I332Y (antibody),1.43
2,V264T (antibody),1.66
3,G237Y (antibody),1.92
4,K320H (antibody),1.13
5,P238G (antibody),1.53
6,V284L (antibody),1.51
7,S239M (antibody),1.03
8,E272I (antibody),1.05
9,F243L/V262I/V264W (antibody),1.35
10,G237P (antibody),2.8
11,G236E (antibody),1.46
12,P271T (antibody),3.88
13,G237T (antibody),1.32
14,N286Y (antibody),1.45
15,P228K (antibody),1.55
16,E233G (antibody),2.09
17,G237E (antibody),1.36
18,L328G (antibody),1.16
19,T299F (antibody),1.86
20,G236H (antibody),1.48
21,E269M (antibody),1.11
22,T223K (antibody),2.97
23,E272L (antibody),1.81
24,T335F (antibody),1.19

row,Substance,FcRn Binding ratio Variant / WT
1,L235V (antibody),1.31
2,S239V (antibody),1.17
3,V284T (antibody),1.15
4,R292D (antibody),1.67
5,V302I (antibody),2.44
6,E283K (antibody),2.74
7,K320L (antibody),1.07
8,H268M (antibody),1.88
9,S298F (antibody),1.15
10,G236K (antibody),1.38
11,I332H (antibody),1.24
12,F241W (antibody),1.7
13,P271I (antibody),1.99
14,K274N (antibody),1.26
15,V264A (antibody),1.12
16,T335M (antibody),1.35
17,S239Q/I332E (antibody),1.33
18,E333L (antibody),1.03
19,N325M (antibody),1.43
20,D249Y (antibody),2.57
21,S239G (antibody),1.16
22,A330H (antibody),9.87
23,G236M (antibody),1.6
24,Q295T (antibody),3.82

row,Substance,FcRn Binding ratio Variant / WT
1,S239E (antibody),1.47
2,T260Y (antibody),7.51
3,L234F (antibody),1.46
4,L234N (antibody),1.06
5,P331L (antibody),1.77
6,V282Y (antibody),1.92
7,V262E (antibody),9.27
8,E233R (antibody),1.05
9,I332T (antibody),1.02
10,F241L (antibody),1.99
11,P271V (antibody),1.06
12,E258Y (antibody),1.07
13,T223E (antibody),2.04
14,E283R (antibody),1.86
15,S324T (antibody),1.07
16,E294K (antibody),1.16
17,S239D/E272Y/I332E (antibody),1.31
18,V264I/A330L/I332E (antibody),1.13
19,D221Y (antibody),2.74
20,F241L/V262I (antibody),1.37
21,E269V (antibody),1.38
22,E318L (antibody),3.61
23,E272W (antibody),1.82
